Results on one substance are retold here after publication PMC6411775.

In the assay the target is full length human histone 3 lysine 4 demethylase KDM5B, His6 tag cleaved (human) (UniProt Q9UGL1). Nature of the assay: SPR; KDM5B immobilised by amine coupling (490 RU and 975 RU); NCPs injected in eight concentrations (two-fold dilutions from 250 nM); 15 °C; 20 mM Hepes, 300 mM NaCl, 1 mM EDTA, 0.005% Tween 20, 1 mM DTT; steady state, 1:1 model; apparent. For orientation: In SPR one partner is held on a chip, and binding of the other changes the refractive index at the surface.

Values joined by “and” are separate entries in the source; they are usually repeats but may differ in a detail not shown here. Equal values may be shown once.

Chain of UniProt Q9UGL1 (Q9UGL1 whole entry): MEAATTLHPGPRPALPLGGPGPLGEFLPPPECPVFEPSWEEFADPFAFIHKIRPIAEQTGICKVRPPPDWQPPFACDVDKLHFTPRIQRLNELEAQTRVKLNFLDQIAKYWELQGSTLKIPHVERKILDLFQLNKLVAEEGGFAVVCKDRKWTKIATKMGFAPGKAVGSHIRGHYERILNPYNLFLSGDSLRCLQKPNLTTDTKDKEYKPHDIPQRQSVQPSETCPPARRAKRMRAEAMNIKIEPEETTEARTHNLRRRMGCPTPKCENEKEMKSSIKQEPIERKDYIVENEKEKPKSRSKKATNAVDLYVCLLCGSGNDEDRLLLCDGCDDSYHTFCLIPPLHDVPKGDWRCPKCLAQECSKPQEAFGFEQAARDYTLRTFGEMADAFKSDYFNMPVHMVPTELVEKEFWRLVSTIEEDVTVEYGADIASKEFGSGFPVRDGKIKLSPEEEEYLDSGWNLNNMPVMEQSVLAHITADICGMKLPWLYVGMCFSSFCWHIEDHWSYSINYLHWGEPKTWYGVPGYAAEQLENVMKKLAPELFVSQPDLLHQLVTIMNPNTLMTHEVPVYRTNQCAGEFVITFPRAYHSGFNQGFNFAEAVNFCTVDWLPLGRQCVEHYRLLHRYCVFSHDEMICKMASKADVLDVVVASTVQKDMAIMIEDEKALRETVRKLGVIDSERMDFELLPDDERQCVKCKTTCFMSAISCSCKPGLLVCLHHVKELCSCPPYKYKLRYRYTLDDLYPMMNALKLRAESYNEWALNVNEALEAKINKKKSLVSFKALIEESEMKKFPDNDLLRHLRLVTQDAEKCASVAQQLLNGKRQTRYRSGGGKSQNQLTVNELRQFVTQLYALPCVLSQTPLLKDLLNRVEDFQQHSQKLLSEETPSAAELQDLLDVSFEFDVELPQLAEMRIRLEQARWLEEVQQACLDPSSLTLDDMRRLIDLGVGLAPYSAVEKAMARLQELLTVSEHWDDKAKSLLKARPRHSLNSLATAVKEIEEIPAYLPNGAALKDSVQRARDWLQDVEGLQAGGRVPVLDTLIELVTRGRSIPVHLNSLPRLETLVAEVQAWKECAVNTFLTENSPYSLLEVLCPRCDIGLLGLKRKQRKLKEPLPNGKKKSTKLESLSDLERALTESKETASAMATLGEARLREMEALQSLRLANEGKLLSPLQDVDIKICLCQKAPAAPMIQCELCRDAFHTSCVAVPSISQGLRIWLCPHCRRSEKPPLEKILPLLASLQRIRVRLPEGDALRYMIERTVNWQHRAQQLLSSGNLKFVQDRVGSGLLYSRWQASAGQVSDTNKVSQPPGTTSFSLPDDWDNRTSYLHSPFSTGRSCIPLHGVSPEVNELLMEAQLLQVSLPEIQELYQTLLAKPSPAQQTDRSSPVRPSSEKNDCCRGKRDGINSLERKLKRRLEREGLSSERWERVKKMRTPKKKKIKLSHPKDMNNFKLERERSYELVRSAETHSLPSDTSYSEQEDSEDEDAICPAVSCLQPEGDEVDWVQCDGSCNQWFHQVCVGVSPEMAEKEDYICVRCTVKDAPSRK

With “Nucleosome core particles (NCPs), recombinant Xenopus laevis histone octamer on the Widom 601 DNA (complex)”, the Kd is 20.3 nM and 27.7 nM.
